Data on five substances can be found in doi:10.1101/2023.05.29.542777.

What all share (assay): co-IP
For assay [1], the target named is TbTim8/13-3X-HA (T. brucei).
In assay [2] the target is TbTim13-3X-HA (T. brucei).
Assay [3] addresses TbTim10-3X-HA (T. brucei).
Assay [4] addresses TbTim12-3X-HA (T. brucei).
For a further assay, the target named is TbTim9-3X-HA (T. brucei).
Assay [5] concerns the target TbTim10-2X-Myc (T. brucei).

Consider TbTim10-2X-Myc (natural protein), for which the percent of the input co-precipitated (% of the input) (in assay [1]; with TbTim9-3X-HA (T. brucei)) was 60 throughout. For the same substance, the percent of the input co-precipitated in assay [2], in assay [3] and in assay [4] was less than 10% throughout.
In assay [5], TbTim8/13-3X-HA (natural protein) yielded a percent of the input co-precipitated (% of the input) of 45.
Same read-out and setting: to TbTim12-3X-HA (natural protein) belongs 25; to TbTim10-3X-HA (natural protein), 30; to TbTim9-3X-HA (natural protein), 35.
